These results are taken from patent publication US12583908B2, “Albumin protein variants, production thereof and uses of same” (Yeda Research and Development Co. Ltd., priority 2022, dated 2026).

Entries after “also recorded” stand apart in the source; their conditions may differ. A value given as a limit tells only on which side of the number the result lay.

One data set deals with HEK293T cells. Nature of the data set: HEK293T cell culture with albumin variants. It is filed as cell-based, human. The conditions noted are these: 1 mg/ml albumin, medium with 5% FBS, 5 days. How it is done:
HEK293T adherent cells were grown in DMEM supplemented with GlutaMAX, NEAA and 5% FBS (all from Gibco) at 37° C., 5% CO2. To test the viability of the cultured cells in the presence of PROSS BSA2, HSA1 and HSA3 in comparison to the commercial BSA or HSA, respectively, cells (˜3×10^3) were seeded in 24-well plate and followed each day for 5 days. All the albumin variants were added to the cells at 1 mg/ml in duplicates, and their effect was analyzed. As a control, no protein was added to the growth medium. In each time point, cells were collected and the number of total cells, live cells and % of viable cells were determined automatically using Brightfield Cell Counter DeNovix.

The test system of the next data set is NcoI and XhoI enzymes. Nature of the data set: DNA restriction of pET29b with NcoI and XhoI in albumin-containing buffer. The format is biochemical. The conditions noted are these: 0.1 mg/ml albumin, overnight at 37° C. How it is done:
DNA Restriction. pET29b vector with 900 bp insert was restricted with NcoI and XhoI enzymes (NEB) overnight at 37° C., using the following buffers: rCutsmart buffer (NEB, contains 0.1 mg/ml rBSA), buffer 4 (NEB, identical composition to rCutsmart buffer, but no BSA), and buffer 4 supplemented with HSA1, BSA2, and HSA3 variants (tagless, after gel filtration and ion exchange purification) at 0.1 mg/ml.

A short description of data set [1]: Thermal stability by differential scanning calorimetry (DSC). It is filed as physicochemical. How it is done: (§1) Thermal stability measurements. Thermal stability of BSA and HSA variants (His-tagged form) and of commercial WT HSA and BSA (Sigma-Aldrich A1653 and A7638, respectively) was measured by nanoscale differential scanning fluorimetry (nanoDSF), in Prometheus NT.48 instrument (NanoTemper). The temperature was increased from 20° C. to 95° C. at 1° C./min ramp. Thermal stability of HSA variants was also measured by differential scanning calorimetry (DCS) in VP-DSC instrument (Malvern), with heating from 20° C. to 95° C. at 1° C./min and cooling at the same rate.
(In general: In DSC, transitions show as peaks or steps in heat flow.)

A short description of data set [2]: Thermal stability by nanoDSF. It is filed as physicochemical. To be noted: His-tagged variants and commercial WT; 20 to 95° C. at 1° C./min. How it is done: as §1
Background: In DSF a fluorescence change marks the thermal transition of the protein.

In another data set the test system is BsiEI. Nature of the data set: DNA restriction of pET28b(+) with BsiEI in albumin-containing buffer. The format is biochemical. To be noted: 0.1 mg/ml albumin, 60-80° C., 15 min. The procedure:
Samples of pET28b(+) vector (1.5 μg) were restricted by BsiEI (10U, NEB) in 15 μl reaction volumes containing the Cutsmart buffer (NEB) or a reconstituted equivalent (50 mM Potassium acetate, 20 mM Tris-acetate, Mg-acetate, pH 7.9) supplemented with 0.lmg/ml of either commercial BSA (Sigma), HSA1, BSA2, or HSA3 variants (tagless, after gel filtration and ion exchange purification) at temperatures of 60-80° C. for 15 min using a gradient PCR (SensoQuest). Samples were then supplemented with 5 μl DNA sample buffer (150 mM TrisHCl pH 7.4, 5% SDS, 50% Glycerol, 0.05% Bromophenol Blue), heated (60° C., 10 min), and resolved on a 2% agarose-TAE gel containing 0.5 μg/mL Ethidium Bromide for 1.5h at 120V.

Data set [3] can be described thus: Gel filtration (size exclusion) chromatography. The format is physicochemical. How it is done: At the final stage, all the variants were purified by gel filtration chromatography, using HiLoad Superdex 200 column for preps coming from large scale expression (>500 ml culture) and HiLoad Superdex 75 column for preps coming from medium scale expression (50-500 ml culture).
(In general: Size exclusion chromatography separates by hydrodynamic size, large species first.)

A short description of data set [4]: Crystal structure of HSA1 with warfarin, bound myristate. It is filed as binding. The conditions noted are these: no myristate added. How it is done: Crystallization and structure determination of HSA1 and Warfarin. Tagless HSA1 protein obtained from SUMO-HSA production was concentrated to 100 mg/ml in Tris buffer pH 7.0 and supplemented with 1 mM warfarin from 100 mM stock in DMSO. Crystals of HSA1 and warfarin were obtained using the hanging-drop vapor diffusion method with a Mosquito robot (TTP LabTech). All datasets were collected under cryogenic conditions at the European Synchrotron Radiation Facility (ESRF), Grenoble, France at beamline ID30B. The crystals were grown from 0.05 M NaCl, 10% PEG 4000 and 0.05 Tris pH=8.0. The crystals formed in the space group P1, with two monomers per asymmetric unit and diffracted to 2.0 Å resolution. The integrated reflections were scaled using the AIMLESS program (20) from the CCP4i2 program suite (21). HSA1 structure determined by molecular replacement with PHASER (22) using the structure of human serum albumin in complex with aristolochic acid (PDB code 6HSC). All steps of atomic refinement were carried out with the CCP4i2/REFMAC5 program (23) and by PHENIX.refine (24). The models were built into 2 mFobs-DFcalc, and mFobs-DFcalc maps by using the COOT program (25). The model was optimized using PDB_REDO (25, 26) and was evaluated with MOLPROBITY (27). […] Details of the refinement statistics of HSA1 and Warfarin structure are described in Table 1.

B1: HSA3: most highly mutated human albumin variant, 73 mutations all over the protein (Table 2) (protein)
chain: MDAHKSEVAHRFKDLGEENFKALVLIAFAQYLQKCPFEELVKMVKEVTEFAKKCVADETAENCDKSLHTLFGDKLCQVATLRETYGEMADCCAKQDPERHECFLQHKDDNPNLPRLERPEVDVMCKAFHDNEETFLNKYLYEIARRHPYFYAPELLYFAKRYKKAFTECCQAEDKAACLLPKLDALREEGKESSAKQRYKCAILQKFGERVFKAWAIARLSQRFPKAPFEEISKLVTDLTKVHKACCHGDMLECMDDRAKLAKYICENQDSISSKLKECCEKPLLERSHCIAEVENDDKPEDLPPLAADFVESKDVCKNYAEAKDVFLARFLYEYARRHPDYSVTLLLRIAKTYEDTLEKCCKAEDPHECYAKVEEEFKKLVEETQNLIKQNCELFEKLGEYYFQNALLIRYTKKMPQVPTDTLVELTRNLGKVGSKCCKLPEEKRLPCIEDYLSIVLNQLCVLHEKTPVNDRVTKCCTESLVNRRHCFSALEVDETYVPKEFNAETFTFHADLCTLSEEERQIMKQKFLVELVKHKPKATEEQLKAVMDDFTAFVEKCCKAEDPETCFAEEGSKLIAASQAALGL
modifications: Albumin Synthetic variant
Consider B1, for which, in the data set with HEK293T cells, the “Effect on number of HEK293T cells” value is recorded as “no adverse effect” and the “Effect on viability of HEK293T cells” value was “no adverse effect”. Also, the “Restriction performance, pET29b(+) digested with NcoI and XhoI” value with NcoI and XhoI enzymes was “performed equally well”. In data set [1], the “Thermal stability” value is “stable beyond the boiling point”. Besides, the “Reversibility of thermal unfolding” value in data set [1] (heating and cooling) is “reversible temperature-dependent folding and unfolding”. Besides, the “Melting temperature (DSC)” value in data set [1] (heating at 1° C./min) is 100.5 °C. Besides, in data set [2], the “Melting temperature nanoDSF” value was greater than 95 °C. Further, the “Restriction performance, pET28b(+) digested with BsiEI” value in the data set on BsiEI is “performed equally well”.

B2: HSA1: human serum albumin variant with 16 mutations, no surface and no binding site mutations (Table 2) (protein)
chain: MDAHKSEVAHRFKDLGEENFKALVLIAFAQYLQQCPFEDLVKMVNEVTEFAKTCVADESAENCDKSLHTLFGDKLCTVATLRETYGEMADCCAKQEPERNECFLQHKDDNPNLPRLVRPEPDVMCTAFHDNEETFLKKYLYEIARRHPYFYAPELLYFAKRYKAAFTECCQAADKAACLLPKLDELREEGKASSAKQRHKCAILQKFGERAFKAWAVARLSQRFPKAEFAEVSKLVTDLTKVHTECCHGDLLECADDRADLAKYICENQDSISSKLKECCEKPLLEKSHCIAEVENDEMPADLPSLAADFIESKDVCKNYAEAKDVFLGMFLYEYARRHPDYSVVLLLRLAKTYETTLEKCCAAADPHECYSKVFDEFKPLIEEPQNLIKQNCELFEQLGEYKFQNALLIRYTKKVPQVSTPTLVEVARNLGKVGSKCCKHPEAKRMPCAEDYLSIVLNQLCVLHEKTPVSDRVTKCCTESLVNRRPCFSALEVDETYVPKEFNAETFTFHADICTLSEEERQIKKQTALVELVKHKPKATKEQLKAVMDDFSAFVEKCCKADDKETCFAEEGKKLIAASQAALGL
modifications: Albumin Synthetic variant
In the case of B2, in the data set on HEK293T cells, the “Effect on number of HEK293T cells” value is on record as “no adverse effect” and the “Effect on viability of HEK293T cells” value is reported as “no adverse effect”. In the data set on NcoI and XhoI enzymes, the “Restriction performance, pET29b(+) digested with NcoI and XhoI” value is “performed equally well”. For the same molecule, the “Oligomeric state by gel filtration” value in data set [3] is reported as “completely monomeric”. Moreover, the “Fatty-acid (myristate) binding” value in data set [4] is reported as “indistinguishable from the wild type; also recorded: four molecules of myristate fatty acid are present in the structure”. In addition, the “Melting temperature nanoDSF” value in data set [2] came out at 86 °C. Besides, the “Restriction performance, pET28b(+) digested with BsiEI” value in the data set on BsiEI is given as “performed equally well”.
